Paper PMC11320999, “APH(3’)-Ie, an aminoglycoside-modifying enzyme discovered in a rabbit-derived Citrobacter gillenii isolate” (Frontiers in Cellular and Infection Microbiology, 2024)

Legend:
Assay in all cases: purified protein
Format in all cases: biochemical, Citrobacter gillenii
Conditions in all cases: 1 mM ATP, 1 mM MgCl2, 2 mM KCl, 100 mM HEPES pH 7.0, 25 °C
[1] = test system: NC[C@@H]1O[C@H](O[C@H]2[C@@H](O)[C@H](O[C@@H]3[C@@H](O)[C@H](N)C[C@H](N)[C@H]3O[C@H]3O[C@H](CO)[C@@H](O)[C@H](O)[C@H]3N)O[C@@H]2CO)[C@H](N)[C@@H](O)[C@@H]1O
[2] = test system: NC[C@H]1O[C@H](O[C@H]2[C@H](O)[C@@H](O[C@H]3O[C@H](CO)[C@@H](O)[C@H](N)[C@H]3O)[C@H](N)C[C@@H]2N)[C@H](O)[C@@H](O)[C@@H]1O
[3] = test system: NC[C@H]1O[C@H](O[C@H]2[C@H](O[C@@H]3O[C@H](CO)[C@@H](O)[C@H]3O)[C@@H](O)[C@H](N)C[C@@H]2N)[C@H](N)[C@@H](O)[C@@H]1O

APH(3’)-Ie (Citrobacter gillenii)
Km [1]: 7.74 ± 1.44 µM | kcat [1]: 0.86 ± 0.01 s⁻¹ | kcat/Km [1]: 114000 ± 28000 M⁻¹ s⁻¹ | Km [2]: 20.99 ± 1.84 µM | kcat [2]: 1.06 ± 0.05 s⁻¹ | kcat/Km [2]: 50800 ± 4400 M⁻¹ s⁻¹ | Km [3]: 4.22 ± 0.88 µM | kcat [3]: 1.31 ± 0.09 s⁻¹ | kcat/Km [3]: 323000 ± 81000 M⁻¹ s⁻¹
